The results in this text go back to article PMC5382158 (Frontiers in Cellular and Infection Microbiology, 2017).

For assay [1], the target named is NarI-T25 (M. tuberculosis). Kind of assay: two-hybrid.
Assay [2] deals with T1, Rv2617c-T25 (M. tuberculosis, UniProt I6XER9 1-146).
T1 sequence: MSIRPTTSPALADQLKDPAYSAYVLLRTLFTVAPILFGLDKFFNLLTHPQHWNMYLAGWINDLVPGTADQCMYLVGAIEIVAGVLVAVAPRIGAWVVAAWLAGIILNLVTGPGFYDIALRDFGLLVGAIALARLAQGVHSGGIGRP
Nature of the assay: two-hybrid. The note with it: partners not purified.

KdpF-T18 (peptide) gave a β-galactosidase activity in assay [1] of 1200 Miller units.

B1: KdpF-T18 (peptide)
chain: MTTVDNIVGLVIAVALMAFLFAALLFPEKF
B1: the β-galactosidase activity in assay [2] was 2030 Miller units.
